The assay addresses Photosystem II subunit S (PsbS) from Physcomitrella patens (Physcomitrella patens). As to the kind of experiment: SDS-PAGE.

What is called stoichiometry N is a count of units in the complex or per binding partner.

In the case of “Photosystem II subunit S (PsbS) from Physcomitrella patens (natural protein)”, the stoichiometry N was 2.

The values above are taken from doi:10.1101/456046.
